Values joined by “and” are separate entries in the source; they are usually repeats but may differ in a detail not shown here. Equal entries are not always repeated. Values belong to the substance of their own block, whether it stands above or below them.
Tests used:
[1] = molecular target: 6×His-Sumo tagged mouse cGAS catalytic domain (UniProt Q8C6L5); assay: TR-FRET competition assay; details: unlabelled competitor at the highest titrated concentration, est. ~5,000 nM; signal is residual cGAS-biotin-NCP TR-FRET (lower = more competition); parent: est. 0.16; read off a plot
[2] = molecular target: 147 bp nucleosome reconstituted with H2B(K125C)-biotin (human) (UniProt P04908); assay: AlphaScreen or HTRF; TR-FRET competition: 15 nM 6×His-Sumo-mcGAS, 2 nM biotin NCP, 4 nM Eu-W1024 streptavidin, 10 nM ULight-anti-6×His; 0–2,000 nM untagged MRN or 0–5,000 nM unlabelled nucleosome; 10 mM Tris-HCl pH 7.5, 50 mM NaCl, 5% glycerol, 0.01% NP-40, 0.01% CHAPS, 5 mM DTT, 100 µg/ml BSA; 1 h at room temperature
[3] = molecular target: human nucleosome core particle, wild type, unlabelled (human) (UniProt P04908); assay: native gel or EMSA; 50 or 100 nM 147-bp hNCP with 200 or 50 nM mcGAS-CR and 0–1.2 µM MRN; 20 mM HEPES pH 7.5, 50 mM NaCl, 5% sucrose, 1 mM DTT; on ice; gel scanned for mcGAS-CR fluorescence, then ethidium bromide

response (normalized fluorescence) [1]: 0.63
Substance: human nucleosome core particle, wild type, unlabelled (from UniProt P04908;P62807;Q71DI3;P62805) H2A:E61A; H2A:E64S; H2A:N68A; H2A:D72S; H2A:N89A; H2A:D90A; H2A:E91S

percent reduction of the cGAS–NCP TR-FRET signal at plateau [2]: 50%
Substance: untagged MRN complex (mixture of 2 unlabelled MR:1 NBS1–Flag) (from UniProt P49959 1-708; Q92878 1-1312; O60934 1-754)

stoichiometry N [3]: 1 cGAS per NCP and 2 cGAS per NCP
Substance: carboxyrhodamine-labelled mouse cGAS catalytic domain (from UniProt Q8C6L5 141-507) (domain or fragment)
